B1: HIS-tagged recombinant PSPC1 (natural protein, mouse, UniProt Q8R326-1 3-523, looked up)
chain: LRGNLKQVRIEKNPARLRALESAAGESEPVAAAAMALTLAGEQAPPPAPSEEHPDEELGFTIDIKSFLKPGEKTYTQRCRLFVGNLPTDITEEDFKRLFERYGEPSEVFINRDRGFGFIRLESRTLAEIAKAELDGTILKSRPLRIRFATHGAALTVKNLSPVVSNELLEQAFSQFGPVEKAVVVVDDRGRATGKGFVEFAAKPPARKALERCGDGAFLLTTTPRPVIVEPMEQFDDEDGLPEKLMQKTQQYHKEREQPPRFAQPGTFEFEYASRWKALDEMEKQQREQVDRNIREAKEKLEAEMEAARHEHQLMLMRQDLMRRQEELRRLEELRNQELQKRKQIQLRHEEEHRRREEEMIRHREQEELRRQQEGGFKPNYMENREQEMRMGDMGPRGAINMGDAFSPAPAGTQGPPPMMGMNMNNRGTIPGPPMGPGPAMGPEGAANMGTPMIPDNGAVHNDRFPQGPPSQMGSPMGNRTGSETPQAPMSGVGPVSGGPGGFGRGSQGGNFEGPNKRRRY
B2: GST-IMPα4 (natural protein, mouse, UniProt O35343 1-521, looked up)
chain: MADNEKLDNQRLKNFKNKGRDLETMRRQRNEVVVELRKNKRDEHLLKRRNVPQEDICEDSDIDGDYRVQNTSLEAIVQNASSDNQGIQLSAVQAARKLLSSDRNPPIDDLIKSGILPILVHCLERDDNPSLQFEAAWALTNIASGTSEQTQAVVQSNAVPLFLRLLHSPHQNVCEQAVWALGNIIGDGPQCRDYVISLGVVKPLLSFISPSIPITFLRNVTWVMVNLCRHKDPPPPMETIQEILPALCVLIHHTDVNILVDTVWALSYLTDAGNEQIQMVIDSGIVPHLVPLLSHQEVKVQTAALRAVGNIVTGTDEQTQVVLNCDALSHFPALLTHPKEKINKEAVWFLSNITAGNQQQVQAVIDANLVPMIIHLLDKGDFGTQKEAAWAISNLTISGRKDQVAYLIQQNVIPPFCNLLTVKDAQVVQVVLDGLSNILKMAEDQAETIANLIEECGGLEKIEQLQNHENEDIYKLAYEIIDQFFSSDDIDEDPSLVPESVQGGTFGFNSSTNVPTEGFQF

Holding throughout (test): ELISA
(In general: An ELISA detects its analyte on a solid surface through an enzyme-linked reagent.)

Assay [1] concerns the target IMPα4/GST-IMPβ1 heterodimer (tag-free IMPα4 predimerized with GST-IMPβ1) (mouse | , UniProt O35343 1-521; P70168 1-876).
The target of assay [2] is GST-tagged full-length IMPα2 (mouse, UniProt P52293 1-529).
Assay [3] addresses IMPα6/GST-IMPβ1 heterodimer (tag-free IMPα6 predimerized with GST-IMPβ1) (mouse | , UniProt O35345 1-536; P70168 1-876).
In assay [4] the target is IMPα2/GST-IMPβ1 heterodimer (tag-free IMPα2 predimerized with GST-IMPβ1) (mouse | , UniProt P52293 1-529; P70168 1-876).
Sequence of IMPα2/GST-IMPβ1 heterodimer (tag-free IMPα2 predimerized with GST-IMPβ1) (P70168 whole entry, one chain of several): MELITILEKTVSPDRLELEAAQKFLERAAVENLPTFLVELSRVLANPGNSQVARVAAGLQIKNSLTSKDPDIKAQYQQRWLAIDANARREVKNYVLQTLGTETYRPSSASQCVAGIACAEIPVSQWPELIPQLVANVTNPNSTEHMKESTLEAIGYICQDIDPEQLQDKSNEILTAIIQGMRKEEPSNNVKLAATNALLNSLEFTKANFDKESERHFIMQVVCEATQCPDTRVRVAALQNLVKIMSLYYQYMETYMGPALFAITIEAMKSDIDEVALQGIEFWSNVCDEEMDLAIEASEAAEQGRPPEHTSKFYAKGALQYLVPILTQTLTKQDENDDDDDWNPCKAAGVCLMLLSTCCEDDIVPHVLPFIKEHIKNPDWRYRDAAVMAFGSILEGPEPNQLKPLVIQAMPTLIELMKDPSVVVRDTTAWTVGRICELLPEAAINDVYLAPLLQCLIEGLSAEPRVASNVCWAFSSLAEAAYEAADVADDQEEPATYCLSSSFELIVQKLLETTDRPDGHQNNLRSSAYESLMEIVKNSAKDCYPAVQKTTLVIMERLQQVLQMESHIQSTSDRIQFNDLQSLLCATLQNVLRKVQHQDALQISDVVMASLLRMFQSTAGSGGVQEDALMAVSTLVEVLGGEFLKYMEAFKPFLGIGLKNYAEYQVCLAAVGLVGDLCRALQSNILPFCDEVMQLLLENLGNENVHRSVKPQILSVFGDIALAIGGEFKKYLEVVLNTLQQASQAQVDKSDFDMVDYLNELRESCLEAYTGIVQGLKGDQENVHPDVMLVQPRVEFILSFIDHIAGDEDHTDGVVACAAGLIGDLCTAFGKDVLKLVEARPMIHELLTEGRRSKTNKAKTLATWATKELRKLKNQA
The next assay deals with GST-IMPα6 (mouse, UniProt O35345 1-536).
The target of assay [5] is B1.

Sequence of IMPα4/GST-IMPβ1 heterodimer (tag-free IMPα4 predimerized with GST-IMPβ1) (P70168 whole entry, one chain of several): as the sequence (P70168 whole entry, one chain of several) above
Sequence of IMPα6/GST-IMPβ1 heterodimer (tag-free IMPα6 predimerized with GST-IMPβ1) (P70168 whole entry, chain 2 of 2): as the sequence (P70168 whole entry, one chain of several) above

In general, Kd refers to the concentration at which binding is half-saturated. As for B1, the Kd in assay [1] is 0.0213 µM; in assay [2] it was 0.015 µM; in assay [3], 0.0021 µM; in assay [4], 0.0019 µM; in the assay with GST-IMPα6 it was 0.0059 µM.

For B2, the Kd in assay [5] stood at 0.0579 µM.
